Assay results as given in IntAct's records for PubMed 17157260.

B1: Protein YNG1 (Saccharomyces cerevisiae), Q08465 (parent)
chain: MEHLANENSDSDIRYSFLSTLDHLPCELIRSLRLMQTIDLFKNEEDEPGMERACRDLLLVATYINDLVDDQIHFLKQHKKELEIQKSVTKNFNSSLENIKSKLTLEEPGAYKEPKLLLKINLKKAKSRERKESITSPTIGINQGDVTEGNNNQEEVYCFCRNVSYGPMVACDNPACPFEWFHYGCVGLKQAPKGKWYCSKDCKEIANQRSKSKRQKRRK

Variants of: B1
Conditions: with h3_yeast HHT1, P61830

How did the “effect of a mutation on the interaction” value turn out when W180E was run?
Its value is “decreasing interaction”.
